Data taken from paper PMC9351455.

Assay: 35S pulse-chase, HA immunoprecipitation from lysate and media
Details: glycan lost; control: wild type Cab45-HA

B1: Cab45: Cab45-N40G (protein)
parent chain: MVWPWVAMASRWGPLIGLAPCCLWLLGAVLLMDASARPANHSSTRERVANREENEILPPDHLNGVKLEMDGHLNRGFHQEVFLGKDLGGFDEDAEPRRSRRKLMVIFSKVDVNTDRKISAKEMQRWIMEKTAEHFQEAMEESKTHFRAVDPDGDGHVSWDEYKVKFLASKGHSEKEVADAIRLNEELKVDEETQEVLENLKDRWYQADSPPADLLLTEEEFLSFLHPEHSRGMLRFMVKEIVRDLDQDGDKQLSVPEFISLPVGTVENQQGQDIDDNWVKDRKKEFEELIDSNHDGIVTAEELESYMDPMNEYNALNEAKQMIAVADENQNHHLEPEEVLKYSEFFTGSKLVDYARSVHEEF
**Q.** For B1, which expression_or_secretion is on record?
**A.** no change
